Measurements from patent US20140328849A1 (Genentech, published 2014).
Numbering of substitutions follows the chain as printed. Values belong to the binder of their own block, whether it stands above or below them.

What was measured:
[1] = biological target: T1, rhesus monkey CRTh2 (rhesus monkey, UniProt Q9Y5Y4 1-395 (human entry)); assay: flow cytometry on 300.19 cells expressing amino-terminal Flag-tagged rhesus CRTh2
T1 construct: also called rhesus CRTh2
T1 chain: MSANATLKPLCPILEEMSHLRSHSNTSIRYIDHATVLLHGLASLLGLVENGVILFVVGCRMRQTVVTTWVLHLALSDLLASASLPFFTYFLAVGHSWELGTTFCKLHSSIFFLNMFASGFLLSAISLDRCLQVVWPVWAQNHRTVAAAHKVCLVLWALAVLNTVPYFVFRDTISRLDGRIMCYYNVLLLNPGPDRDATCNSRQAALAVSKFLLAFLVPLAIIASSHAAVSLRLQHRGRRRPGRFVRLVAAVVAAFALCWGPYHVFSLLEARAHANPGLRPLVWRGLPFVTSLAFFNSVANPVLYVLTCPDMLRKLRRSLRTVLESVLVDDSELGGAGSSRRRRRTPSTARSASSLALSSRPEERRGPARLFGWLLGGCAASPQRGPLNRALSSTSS

[2] = biological target: T2, cynomolgus monkey CRTh2 (cynomolgus monkey, UniProt Q9Y5Y4 1-395 (human entry)); assay: flow cytometry on 300.19 cells expressing amino-terminal Flag-tagged cynomolgus CRTh2 [Cont.]
T2 construct: also called cyno CRTh2; cynomologous CRTh2
T2 chain: T1 chain with P193S, P276R, R360H

[3] = biological target: T1, rhesus monkey CRTh2; assay: flow cytometry on 293 cells expressing rhesus CRTh2

- binding result [1]: no binding (tested: 5 ug/ml)
- binding result [2]: no binding (tested: 1 ug/ml)
B1: mouse anti-human CRTh2 monoclonal antibody 8B1 (antibody, V domains shown)
VH: QVQLQQSGTGLVRPGTSVRVSCKASGYAFITYLIEWIKQRPGQGLEWIGVIHPGSGNSHYNEKFKGKATLTADTSSSTAYMQLSSLTSGDSAVYFCARSGSSSFDYYAMDFWGQGTSVTVSS
VL: DIQMTQSPSSLSASLGERVSLTCRASQEISGYFSWLQQKPDGTIKRLIYAASTLDSGVPKRFSGSRSGSDYSLTISSLESEDFADYYCLQYANYPYTFGGGTKLEIK
notes: also called mu8B1; Mab 8B1

- binding result [3]: no binding (tested: 20 ug/ml)
B2: mouse anti-human CRTh2 monoclonal antibody 19A2 (antibody, mouse IgG2a, V domains shown)
VH: EVKLVESGGGLVQPGGSLKLSCAASGFTFSSYSMSWVRQTPEKRLEWVAYISNGGSTTYYPGTVEGRFTISRDNAKNTLFLQMSSLRSKDTAMYYCARHRTNWDFDYWGQGTTLTVSS
VL: DIQMTQSPASLSVSVGETVTITCRASENIYSNLAWYQQKQGKSPQLVVYAATQLADGVPSRFSGSGSGTQYSLKINSLQSEDFGSYYCQHFWITPWTFGGGTKLEIK
notes: also called mu19A2; Mu19A2
